Entries after “also recorded” stand apart in the source; their conditions may differ.
Legend:
integrin αV/β5 [1] = experiment: Protein-protein binding assay: irisin with his-tag integrins, Ni-NTA co-precipitation and immunoblot; design: species or system murine and human; details: 100 nM irisin, 5 nM his-tag integrin
Experimental: (§1) 100 nM irisin was incubated with 5 nM indicated his-tag integrins followed by immunoprecipitation using Ni-NTA agaroses. Precipitated integrins and co-precipitated irisin were analyzed by immunoblot analysis. […] HEK293T cells were seeded and incubated until 50% cell density. The cells were transfected with 0.1 μg plasmids of indicated integrins. After 48 hours, the cells were incubated with Freestyle293 medium for 3 hours and were treated with indicated concentration of irisin for 5 minutes. Cells were lysed to detect the indicated protein level using immunoblot analysis. […] Sclerostin mRNA level was analyzed by qRT-PCR. […]
(§2) 100 nM irisin was incubated with 5 nM indicated his-tag integrins followed by immunoprecipitation using Ni-NTA agaroses. Precipitated integrins and co-precipitated irisin were analyzed by immunoblot analysis. […] Cells were treated and analyzed as FIG. 14B except using plasmids encoding integrin α5/β1 or integrin α11/β1 (FIG. 15C) integrin αV/β1(FIG. 15D).
100 nM flag-tagged mammalian irisin was incubated with 5 nM of the indicated his-tag integrins in a final volume of 600 μl in 1.5 ml Protein LoBind Tubes (Eppendorf®, 022431081) for 5 minutes at room temperature under rotation. […] Precipitated integrins were detected by immunoblot analysis against his tag. Co-precipitated irisin was detected by immunoblot analysis against flag-tag.

integrin αV/β5 [2] = molecular target: integrin αV/β5 (Homo sapiens, UniProt P06756+P18084); experiment: FAK phosphorylation in HEK293T cells with forced expression of integrin αV/β5; type: cell-based; design: expressed in transfected cells; host or cells: HEK293T; details: HEK293T, forced expression of integrin αV/β5, irisin 5 minutes
Experimental: as §1, §2
MLO-Y4 cells were treated and analyzed as described in FIG. 5A with addition of pretreatment of control RGD peptide, cyclo RGDyK (cRGDyK), or SB273005. […] HEK293 cells were treated and analyzed as described in FIG. 14B except the treatment of different dose of cyclo RGDyK. […] 8 weeks old male mice were treated and analyzed as described in FIG. 5D except the additional group with co-injection of 1 mg/kg SB273005. […]

Chain of integrin αV/β5 (Homo sapiens, UniProt P06756+P18084) (P06756 31-889 limits assumed): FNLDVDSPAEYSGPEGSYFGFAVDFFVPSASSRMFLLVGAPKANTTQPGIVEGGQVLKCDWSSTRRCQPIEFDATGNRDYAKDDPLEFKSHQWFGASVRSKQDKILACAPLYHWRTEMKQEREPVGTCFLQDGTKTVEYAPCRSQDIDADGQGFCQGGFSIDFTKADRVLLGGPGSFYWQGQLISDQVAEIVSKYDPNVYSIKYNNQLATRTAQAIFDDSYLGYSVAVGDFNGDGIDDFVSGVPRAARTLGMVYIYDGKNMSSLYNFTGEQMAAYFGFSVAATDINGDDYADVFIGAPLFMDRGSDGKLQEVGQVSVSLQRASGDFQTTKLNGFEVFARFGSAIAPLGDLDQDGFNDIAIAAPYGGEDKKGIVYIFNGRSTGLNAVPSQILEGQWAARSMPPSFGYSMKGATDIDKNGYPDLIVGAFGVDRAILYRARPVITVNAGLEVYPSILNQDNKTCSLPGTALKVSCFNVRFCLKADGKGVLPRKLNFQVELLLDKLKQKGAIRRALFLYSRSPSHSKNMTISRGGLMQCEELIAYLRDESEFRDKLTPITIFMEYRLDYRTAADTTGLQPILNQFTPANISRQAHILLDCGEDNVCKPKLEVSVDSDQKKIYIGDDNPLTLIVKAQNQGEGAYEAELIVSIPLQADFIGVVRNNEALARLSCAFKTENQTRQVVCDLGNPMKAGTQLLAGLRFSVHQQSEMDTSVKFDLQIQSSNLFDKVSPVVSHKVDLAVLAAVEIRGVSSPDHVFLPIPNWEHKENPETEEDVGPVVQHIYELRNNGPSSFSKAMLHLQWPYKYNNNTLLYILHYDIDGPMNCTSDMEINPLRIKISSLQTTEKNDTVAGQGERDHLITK
Chain of integrin αV/β5 (Homo sapiens, UniProt P06756+P18084) (P06756 891-1048 partner limits assumed): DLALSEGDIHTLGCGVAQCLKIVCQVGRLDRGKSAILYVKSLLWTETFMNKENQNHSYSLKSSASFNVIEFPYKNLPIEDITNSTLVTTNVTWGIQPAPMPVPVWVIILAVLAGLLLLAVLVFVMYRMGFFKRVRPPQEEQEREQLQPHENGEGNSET
Chain of integrin αV/β5 (Homo sapiens, UniProt P06756+P18084) (P18084 24-799): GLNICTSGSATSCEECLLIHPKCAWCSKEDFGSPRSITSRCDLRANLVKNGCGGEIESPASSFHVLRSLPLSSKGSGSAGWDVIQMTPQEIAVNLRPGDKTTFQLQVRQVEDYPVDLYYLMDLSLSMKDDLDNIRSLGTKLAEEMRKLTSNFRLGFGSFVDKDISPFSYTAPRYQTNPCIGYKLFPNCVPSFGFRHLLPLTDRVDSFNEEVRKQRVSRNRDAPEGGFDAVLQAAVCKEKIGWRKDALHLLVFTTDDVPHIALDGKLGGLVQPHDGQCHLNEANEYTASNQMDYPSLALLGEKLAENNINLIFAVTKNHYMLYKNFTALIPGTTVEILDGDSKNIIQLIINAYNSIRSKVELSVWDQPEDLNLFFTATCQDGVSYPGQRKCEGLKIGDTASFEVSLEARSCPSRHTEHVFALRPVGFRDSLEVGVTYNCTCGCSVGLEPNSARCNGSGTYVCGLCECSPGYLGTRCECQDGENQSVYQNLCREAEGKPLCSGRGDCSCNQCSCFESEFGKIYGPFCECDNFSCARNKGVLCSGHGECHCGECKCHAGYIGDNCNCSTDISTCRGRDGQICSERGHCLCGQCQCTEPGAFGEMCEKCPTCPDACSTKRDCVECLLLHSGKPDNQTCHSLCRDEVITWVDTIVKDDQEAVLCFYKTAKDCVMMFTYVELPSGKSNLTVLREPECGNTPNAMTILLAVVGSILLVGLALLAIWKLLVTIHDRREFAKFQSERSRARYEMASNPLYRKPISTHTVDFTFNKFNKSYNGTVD

B1: irisin: secreted cleaved form of FNDC5; recombinant human/mouse irisin with C-terminal his tag produced in HEK293 cells (protein)
chain: DSPSAPVNVTVRHLKANSAVVSWDVLEDEVVIGFAISQQKKDVRMLRFIQEVNTTTRSCALWDLEEDTEYIVHVQAISIQGQSPASEPVLFKTPREAEKMASKNKDEVTMKE
modifications: left off: small tags and cut ends
notes: secreted cleaved form of FNDC5; recombinant human/mouse irisin with C-terminal his tag produced in HEK293 cells
extent of binding of irisin to integrin complex (integrin αV/β5 [1]): by far the highest extent of binding; also recorded: highest apparent affinity | phosphorylation of FAK upon irisin treatment (integrin αV/β5 [2]): enhanced level of phosphorylation of FAK

Source: patent publication US20210063414A1, “METHODS FOR PREVENTING AND/OR TREATING BONE LOSS CONDITIONS BY MODULATING IRISIN” (Dana-Farber Cancer Institute, Inc., priority 2018, published 2021)
